Data on one substance can be found in patent publication US10215752.

In the assay the target is His-tag GafD lectin (Escherichia coli) (UniProt Q47341). The assay can be described thus: concentration dependent nIR fluorescence loading curves, ks against concentration, GafD on Ni-NTA SWNT/chitosan sensor.

The term Kd denotes the constant that tells how readily two partners part at equilibrium. Low readings indicate a tighter complex, high ones a looser complex. By koff is commonly meant the rate constant with which the complex falls apart. Read a high koff as fast dissociation.

Chain of His-tag GafD lectin (Escherichia coli) (Q47341 23-200 limits assumed): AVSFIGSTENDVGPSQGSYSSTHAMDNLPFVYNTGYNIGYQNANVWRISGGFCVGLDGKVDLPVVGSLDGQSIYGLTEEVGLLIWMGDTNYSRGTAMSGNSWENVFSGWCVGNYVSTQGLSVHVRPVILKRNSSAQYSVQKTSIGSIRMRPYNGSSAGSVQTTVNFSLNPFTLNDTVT

In turn, “murine produced anti His-tag antibody (Sigma H1029)” yielded a Kd of 4 µM and a koff of 0.0082 s⁻¹.
